Measurements: paper PMC5150261

Columns and labels:
[1] = target: VHR (as used in the GST pull-down) (not stated (human or mouse cDNA cloned)) (UniProt P51452)
[2] = target: VHR (as used in the GST pull-down) (not stated (human or mouse cDNA cloned)) (UniProt P51452); remark: listed apart in the source

Sequence of UniProt P51452 (P51452 whole entry): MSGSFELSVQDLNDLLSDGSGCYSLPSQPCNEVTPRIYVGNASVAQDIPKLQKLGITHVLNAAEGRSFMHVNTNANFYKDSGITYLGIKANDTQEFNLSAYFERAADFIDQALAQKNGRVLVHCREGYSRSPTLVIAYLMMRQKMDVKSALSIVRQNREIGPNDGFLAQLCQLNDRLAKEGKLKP

- in vitro VHR phosphatase activity with purified recombinant p-ERK2 as substrate (1 μg GST-VHR with 2 μg His-HSP70, against VHR alone) [1]: 2 fold
- in vitro VHR phosphatase activity with pNPP as substrate (5 μg GST-VHR with 10 μg His-HSP70, against VHR alone) [2]: 2 fold
Substance: GST-tagged full-length HSP70 (from UniProt P0DMV8 1-641) (natural protein)
